Results as given in patent US20250222127A1, “COMPOSITIONS AND METHODS FOR TREATING AND PREVENTING TRANSPLANT-ASSOCIATED INJURY” (MUSC Foundation For Research Development, priority 2016, published 2025).

What was measured:
[1] = system: allogeneic grafts; experiment: Graft survival with B4-Crry and subtherapeutic tacrolimus; type: in vivo
Description: FIG. 6 depicts the results of example experiments depicting the survival curve from B4-Crry and subtherapeutic tacrolimus.
Experiments were conducted to examine the effects of B4-Crry in combination with sub-therapeutic tacrolimus (also known as FK506). Tacrolimus was given at 1 mg/kg/day. […] Thus, untreated allogeneic grafts reject at the same extent as the subtherapeutic Tacrolimus treated animals. B4-Crry was given at 0 and 24 hours post-transplant and Tacrolimus was given at 1 mg/kg/day for the duration of the experiment (until full rejection of the graft).

[2] = system: VC isografts; experiment: Ischemia reperfusion injury of VC isografts, histology scoring of skin and muscle; type: in vivo; conditions: VC isografts in treated wild type mice
Description: Experiments were conducted to evaluate the effects of antibody-targeted complement inhibition on acute graft injury. VC isografts were transplanted into Rag −/− mice or wildtype mice. Mice were treated with PBS, B4 IgM mAb or B4-Crry. Isolated VCAs were stained and scored using a histology scoring system.

[3] = system: transplanted heart; experiment: Cardiac allograft transplant model (B4scFv targeting strategy); type: in vivo, mice
Description: (§1) A therapeutic strategy that exploited this post-ischemia recognition system of natural antibodies was then developed and characterized. Based on neoepitope identification, an anti-annexin-IV single chain antibody (B4scFv) and an scFv linked to Crry (B4scFv-Crry) was constructed. […] Further, post-ischemic expression of the B4scFv neoepitope has been observed in multiple tissues/organs in both mouse and humans. […] Liver biopsies were obtained from human donor livers following Tx and 1 hour reperfusion. […] Similar data was obtained with normal and ischemic brain samples obtained from stroke patients. Finally, it is shown herein that a decrease in anti-annexin IV Abs in human serum 24 hours after cardiac Tx as compared to pre-Tx levels (note that levels were not decreased in 2 patients, which is likely due to transfusion volume) (Table 1). […] In certain aspects, there may be benefits of a neoepitope vs. C3d targeting approach for protection against IRI in a transplant. […] Second, the targeting vehicle itself contributes to therapeutic activity by blocking the binding of complement activating pathogenic IgM, which in turn reduces the binding of Clq and MBL, which can impact inflammation, endothelial activation, cell trafficking, and Ag-presentation. Third, it is likely less immunosuppressive since not all sites of infection and C3 deposition will be targeted with complement inhibition.

[4] = biological target: T1, annexin IV (Homo sapiens, UniProt P09525); experiment: Immunohistochemistry of human donor liver biopsies following Tx and 1 hour reperfusion; type: binding
T1 construct: Liver biopsies were obtained from human donor livers following Tx and 1 hour reperfusion; from tissue; host or cells: human donor liver biopsies after transplantation and 1 hour reperfusion
T1 sequence (P09525 2-319 limits assumed): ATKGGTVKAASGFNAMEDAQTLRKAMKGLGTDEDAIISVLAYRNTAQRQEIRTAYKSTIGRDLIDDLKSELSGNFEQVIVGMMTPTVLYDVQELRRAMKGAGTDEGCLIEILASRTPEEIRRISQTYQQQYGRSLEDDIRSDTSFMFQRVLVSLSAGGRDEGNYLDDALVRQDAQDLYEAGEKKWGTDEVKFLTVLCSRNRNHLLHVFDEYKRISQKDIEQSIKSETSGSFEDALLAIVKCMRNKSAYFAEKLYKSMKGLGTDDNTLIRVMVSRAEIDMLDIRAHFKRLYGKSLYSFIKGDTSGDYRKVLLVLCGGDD
Description: as §1

[5] = system: post-ischemic human brain; experiment: Binding to normal and ischemic brain samples from stroke patients
Description: as §1

[6] = biological target: T2, annexin IV in post-ischemic mouse tissue (transplanted heart, brain-dead donor cardiac grafts, liver) (mouse, UniProt P97429 1-319, limits assumed); experiment: perfusion of radiolabeled (125I) B4scFv-Crry through cardiac grafts of brain-dead or living donors, counted after flush
T2 construct: The target was whole grafts or tissue
T2 sequence (looked up): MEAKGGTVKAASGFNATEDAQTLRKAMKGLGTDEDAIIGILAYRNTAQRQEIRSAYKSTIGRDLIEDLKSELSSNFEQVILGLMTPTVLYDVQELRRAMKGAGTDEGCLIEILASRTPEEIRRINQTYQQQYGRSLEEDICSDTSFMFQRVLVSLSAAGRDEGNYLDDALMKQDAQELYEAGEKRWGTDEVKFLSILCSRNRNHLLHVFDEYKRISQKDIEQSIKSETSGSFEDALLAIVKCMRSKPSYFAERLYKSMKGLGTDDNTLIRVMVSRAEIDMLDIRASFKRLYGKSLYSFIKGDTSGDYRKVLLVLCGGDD
Description: FIG. 5 depicts the Binding of ¹²⁵I-B4-Crry after perfusion of grafts of BD (3 hours) or living donors. […] After 5 minutes, flush with 0.5 ml PBS, weigh and count.
In this experiment, B4scFv-Crry was administered to the donor hearts as a constituent of the UW preservation solution. […] The donor heart was then isolated and perfused with 0.5 mL ice cold UW or I¹²⁵-B4scFv-Crry via the proximal aortic arch.

[7] = allograft transplant model, recipients with full natural antibody repertoire

## C=CC[C@@H]1/C=C(\C)C[C@H](C)C[C@H](OC)[C@H]2O[C@@](O)(C(=O)C(=O)N3CCCC[C@H]3C(=O)O[C@H](/C(C)=C/[C@@H]3CC[C@@H](O)[C@H](OC)C3)[C@H](C)[C@@H](O)CC1=O)[C@H](C)C[C@@H]2OC [Tacrolimus, reference compound]
[1]; tacrolimus alone, 1 mg/kg/day (subtherapeutic)
  graft survival: does not prolong survival

B1: B4scFv-Crry: anti-annexin-IV single chain antibody (B4scFv) linked to Crry; B4Crry amino acid sequence SEQ ID NO: 62 (protein)
chain: MSVPTQVLGLLLLWLTDARCVKLQESGPELVKPGASVKISCKASGYTFTDYYMNWVKQSHGKSLEWIGDINPNNGGTSYNQKFKGKATLTVDKSSSTAYMELRSLTSEDSAVYYCARYDYAWYFDVWGQGTTVTVSSGGGGSGGGGSGGGGDVLMTQTPLSLPVSLGDQASISCRSSQSIVHSNGNTYLEWYLQKPGQSPKLLIYKVSNRFSGVPDRFSGSGSGTDFTLKISRVEAEDLGVYYCFQGSHVPYTFGGGTKLEIKRGGGGSGGGGSCPAPSQLPSAKPINLTDESMFPIGTYLLYECLPGYIKRQFSITCKQDSTWTSAEDKCIRKQCKTPSDPENGLVHVHTGIQFGSRINYTCNQGYRLIGSSSAVCVITDQSVDWDTEAPICEWIPCEIPPGIPNGDFFSSTREDFHYGMVVTYRCNTDARGKALFNLVGEPSLYCTSNDGEIGVWSGPPPQCIELNKCTPPPYVENAVMLSENRSLFSLRDIVEFRCHPGFIMKGASSVHCQSLNKWEPELPSCFKGVICRLPQEMSGFQKGLGMKKEYYYGENVTLECEDGYTLEGSSQSQCQSDGSWNPLLAKCVSRSIIEGRHHHHHH
modifications: B4Crry amino acid sequence
[2]
  Ischemia reperfusion injury (skin and muscle histopathological score): protection from IRI
[3]; allograft transplant model
  cardiac graft inflammation and injury: significantly reduced
[3]; [7]
  complement activation in graft: blocked
  graft IgM binding: blocked
[3]; cardiac Tx model
  targeting to the transplanted heart: specifically targeted to the transplanted heart
[3]; compared with complement deficiency
  immunity to infection: did not affect immunity to infection
[4]; human liver biopsies post-Tx
  staining of biopsies obtained post-Tx: stained biopsies obtained post-Tx
[4]; normal human liver biopsies
  staining of samples from normal biopsies: not samples from normal biopsies
[4]; post-ischemic human liver
  binding to post-ischemic human liver: directly bind
[5]
  binding to post-ischemic human brain: directly bind
[1]; B4-Crry at 0 and 24 hours post-transplant combined with tacrolimus 1 mg/kg/day, vs. tacrolimus alone
  graft survival: significantly prolongs graft survival

B2: B4scFv-Crry (scFv)
chain: VKLQESGPELVKPGASVKISCKASGYTFTDYYMNWVKQSHGKSLEWIGDINPNNGGTSYNQKFKGKATLTVDKSSSTAYMELRSLTSEDSAVYYCARYDYAWYFDVWGQGTTVTVSSGGGGSGGGGSGGGGDVLMTQTPLSLPVSLGDQASISCRSSQSIVHSNGNTYLEWYLQKPGQSPKLLIYKVSNRFSGVPDRFSGSGSGTDFTLKISRVEAEDLGVYYCFQGSHVPYTFGGGTKLEIKRGGGGSGGGGSCPAPSQLPSAKPINLTDESMFPIGTYLLYECLPGYIKRQFSITCKQDSTWTSAEDKCIRKQCKTPSDPENGLVHVHTGIQFGSRINYTCNQGYRLIGSSSAVCVITDQSVDWDTEAPICEWIPCEIPPGIPNGDFFSSTREDFHYGMVVTYRCNTDARGKALFNLVGEPSLYCTSNDGEIGVWSGPPPQCIELNKCTPPPYVENAVMLSENRSLFSLRDIVEFRCHPGFIMKGASSVHCQSLNKWEPELPSCFKGVICRLPQEMSGFQKGLGMKKEYYYGENVTLECEDGYTLEGSSQSQCQSDGSWNPLLAKCVSRSIIEGRHHHHHH
modifications: 125I radiolabel in the graft perfusion experiment (position not given)
notes: also called B4-Crry; B4Crry
[6]
  fold higher binding in BD vs. living donor grafts: 7 fold
